Experimental data as given in PMC11319201 (2024).

Key:
[1] = target: T1, STAG2–RAD21 complex (wild type) (human | , UniProt Q8N3U4 1-1231; O60216 1-631); test: ITC
T1 chain 1: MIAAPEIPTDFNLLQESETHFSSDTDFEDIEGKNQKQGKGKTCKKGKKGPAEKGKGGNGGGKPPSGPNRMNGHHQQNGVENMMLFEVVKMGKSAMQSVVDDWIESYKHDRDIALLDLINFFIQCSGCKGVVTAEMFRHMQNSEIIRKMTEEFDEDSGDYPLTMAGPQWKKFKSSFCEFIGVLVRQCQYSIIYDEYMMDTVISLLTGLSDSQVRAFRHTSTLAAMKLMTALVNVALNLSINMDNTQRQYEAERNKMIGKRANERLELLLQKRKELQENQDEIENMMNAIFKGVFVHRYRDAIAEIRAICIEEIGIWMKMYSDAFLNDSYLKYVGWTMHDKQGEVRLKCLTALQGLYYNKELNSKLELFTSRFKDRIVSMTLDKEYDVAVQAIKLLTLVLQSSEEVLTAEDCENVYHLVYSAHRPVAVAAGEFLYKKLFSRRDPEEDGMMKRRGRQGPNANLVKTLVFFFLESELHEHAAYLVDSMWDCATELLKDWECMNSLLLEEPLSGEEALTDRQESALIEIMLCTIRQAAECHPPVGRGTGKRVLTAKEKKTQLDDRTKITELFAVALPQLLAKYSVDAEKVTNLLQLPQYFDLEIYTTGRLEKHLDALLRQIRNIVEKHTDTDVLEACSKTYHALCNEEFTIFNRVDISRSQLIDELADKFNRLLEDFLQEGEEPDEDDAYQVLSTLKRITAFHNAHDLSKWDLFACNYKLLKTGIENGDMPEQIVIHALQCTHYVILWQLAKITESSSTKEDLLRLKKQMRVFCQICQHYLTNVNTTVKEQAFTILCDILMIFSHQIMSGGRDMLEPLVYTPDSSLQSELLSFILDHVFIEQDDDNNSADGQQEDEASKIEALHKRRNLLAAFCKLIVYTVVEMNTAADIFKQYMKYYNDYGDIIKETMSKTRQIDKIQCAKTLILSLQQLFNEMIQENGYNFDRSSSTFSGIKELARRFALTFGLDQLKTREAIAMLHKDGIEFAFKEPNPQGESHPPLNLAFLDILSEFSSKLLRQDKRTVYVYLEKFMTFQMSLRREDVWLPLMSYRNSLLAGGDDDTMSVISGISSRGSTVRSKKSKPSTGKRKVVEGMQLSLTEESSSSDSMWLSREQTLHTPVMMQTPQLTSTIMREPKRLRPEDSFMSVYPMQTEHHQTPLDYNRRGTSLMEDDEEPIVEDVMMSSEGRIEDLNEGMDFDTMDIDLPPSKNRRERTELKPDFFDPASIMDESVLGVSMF
T1 chain 2: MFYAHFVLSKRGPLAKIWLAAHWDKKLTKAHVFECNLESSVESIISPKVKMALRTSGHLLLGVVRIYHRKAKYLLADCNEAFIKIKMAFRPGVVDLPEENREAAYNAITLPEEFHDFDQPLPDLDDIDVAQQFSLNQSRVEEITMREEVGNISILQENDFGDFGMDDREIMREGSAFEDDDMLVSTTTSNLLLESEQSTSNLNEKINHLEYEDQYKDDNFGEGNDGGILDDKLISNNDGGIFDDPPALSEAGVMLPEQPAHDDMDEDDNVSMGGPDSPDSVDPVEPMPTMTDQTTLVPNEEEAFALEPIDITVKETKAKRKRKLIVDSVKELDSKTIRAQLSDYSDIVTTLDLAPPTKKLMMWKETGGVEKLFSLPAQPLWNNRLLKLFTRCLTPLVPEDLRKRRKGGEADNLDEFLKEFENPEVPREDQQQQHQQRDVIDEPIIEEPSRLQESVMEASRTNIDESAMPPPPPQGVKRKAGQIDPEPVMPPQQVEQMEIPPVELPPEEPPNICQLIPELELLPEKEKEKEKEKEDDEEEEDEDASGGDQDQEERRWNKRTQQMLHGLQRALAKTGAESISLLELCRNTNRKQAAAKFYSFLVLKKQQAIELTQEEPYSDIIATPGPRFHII

[2] = target: STAG2^R370Q–RAD21 complex (human | , UniProt Q8N3U4 1-1231; O60216 1-631, R370Q); test: ITC
Chain of STAG2^R370Q–RAD21 complex (Q8N3U4 whole entry R370Q, chain 1 of 2, one chain of several): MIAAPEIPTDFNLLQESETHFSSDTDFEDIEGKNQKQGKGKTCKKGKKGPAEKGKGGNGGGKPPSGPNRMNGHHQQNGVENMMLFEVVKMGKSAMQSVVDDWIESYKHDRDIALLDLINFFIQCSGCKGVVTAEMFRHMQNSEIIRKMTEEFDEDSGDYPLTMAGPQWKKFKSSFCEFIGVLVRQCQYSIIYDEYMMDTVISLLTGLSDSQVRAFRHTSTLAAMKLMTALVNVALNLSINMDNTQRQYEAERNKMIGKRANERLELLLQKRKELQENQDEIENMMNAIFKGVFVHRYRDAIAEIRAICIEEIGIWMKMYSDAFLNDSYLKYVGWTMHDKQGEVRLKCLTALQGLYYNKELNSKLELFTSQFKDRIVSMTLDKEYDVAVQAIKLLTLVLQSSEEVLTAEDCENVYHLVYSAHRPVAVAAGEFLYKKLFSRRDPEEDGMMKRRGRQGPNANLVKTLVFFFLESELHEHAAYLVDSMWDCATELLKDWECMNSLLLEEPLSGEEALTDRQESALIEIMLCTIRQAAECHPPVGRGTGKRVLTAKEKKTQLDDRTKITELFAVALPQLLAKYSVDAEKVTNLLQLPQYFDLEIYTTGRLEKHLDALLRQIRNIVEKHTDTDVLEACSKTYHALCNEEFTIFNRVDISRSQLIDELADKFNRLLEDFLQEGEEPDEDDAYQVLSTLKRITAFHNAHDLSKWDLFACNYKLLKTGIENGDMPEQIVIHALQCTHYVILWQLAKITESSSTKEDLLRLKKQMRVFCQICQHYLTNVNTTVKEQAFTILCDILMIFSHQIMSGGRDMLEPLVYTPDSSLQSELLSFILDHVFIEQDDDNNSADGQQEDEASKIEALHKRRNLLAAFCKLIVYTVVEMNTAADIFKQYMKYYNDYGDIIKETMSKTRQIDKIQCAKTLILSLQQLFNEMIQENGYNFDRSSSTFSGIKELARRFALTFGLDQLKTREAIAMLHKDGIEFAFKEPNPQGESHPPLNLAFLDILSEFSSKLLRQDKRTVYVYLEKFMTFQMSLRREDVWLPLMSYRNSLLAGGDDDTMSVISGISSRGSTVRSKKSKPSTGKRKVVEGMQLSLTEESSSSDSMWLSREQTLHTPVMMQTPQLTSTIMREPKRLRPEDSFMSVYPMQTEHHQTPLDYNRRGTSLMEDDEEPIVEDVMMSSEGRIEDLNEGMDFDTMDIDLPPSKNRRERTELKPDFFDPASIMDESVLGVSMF

- Kd [1]: 1.92 µM
- Kd [2]: 21.7 µM
B1: CTCF peptide (peptide)
chain: DVSVYDFEEE
